Molecular target: Nlgn1, Q99K10-1
Sequence (Q99K10 whole entry): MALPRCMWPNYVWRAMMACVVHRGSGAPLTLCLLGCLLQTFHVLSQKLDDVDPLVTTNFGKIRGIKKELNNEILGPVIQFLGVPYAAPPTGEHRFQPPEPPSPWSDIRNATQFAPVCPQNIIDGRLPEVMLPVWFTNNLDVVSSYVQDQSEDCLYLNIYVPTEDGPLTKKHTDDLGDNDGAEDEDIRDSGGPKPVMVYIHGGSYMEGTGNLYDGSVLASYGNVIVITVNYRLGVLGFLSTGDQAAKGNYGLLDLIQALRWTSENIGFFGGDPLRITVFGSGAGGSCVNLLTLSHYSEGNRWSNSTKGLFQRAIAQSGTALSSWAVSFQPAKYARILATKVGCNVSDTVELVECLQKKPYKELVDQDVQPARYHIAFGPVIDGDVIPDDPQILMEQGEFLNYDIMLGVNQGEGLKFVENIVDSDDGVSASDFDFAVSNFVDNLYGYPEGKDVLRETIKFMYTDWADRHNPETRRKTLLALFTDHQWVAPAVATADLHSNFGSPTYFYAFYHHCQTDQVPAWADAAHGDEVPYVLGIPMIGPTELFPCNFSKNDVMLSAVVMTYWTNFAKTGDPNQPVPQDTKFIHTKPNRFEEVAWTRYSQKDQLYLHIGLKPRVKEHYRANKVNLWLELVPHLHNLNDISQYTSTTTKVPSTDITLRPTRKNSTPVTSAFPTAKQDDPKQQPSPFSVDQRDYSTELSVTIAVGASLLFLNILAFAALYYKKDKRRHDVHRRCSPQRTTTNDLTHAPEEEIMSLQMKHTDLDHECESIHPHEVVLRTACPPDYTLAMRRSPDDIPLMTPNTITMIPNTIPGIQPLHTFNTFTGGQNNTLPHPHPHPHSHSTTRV

Sequence of Neurexin-1-beta (Homo sapiens), P58400-1 L240R (P58400 other isoform, or with tags, fused parts or gaps L240R): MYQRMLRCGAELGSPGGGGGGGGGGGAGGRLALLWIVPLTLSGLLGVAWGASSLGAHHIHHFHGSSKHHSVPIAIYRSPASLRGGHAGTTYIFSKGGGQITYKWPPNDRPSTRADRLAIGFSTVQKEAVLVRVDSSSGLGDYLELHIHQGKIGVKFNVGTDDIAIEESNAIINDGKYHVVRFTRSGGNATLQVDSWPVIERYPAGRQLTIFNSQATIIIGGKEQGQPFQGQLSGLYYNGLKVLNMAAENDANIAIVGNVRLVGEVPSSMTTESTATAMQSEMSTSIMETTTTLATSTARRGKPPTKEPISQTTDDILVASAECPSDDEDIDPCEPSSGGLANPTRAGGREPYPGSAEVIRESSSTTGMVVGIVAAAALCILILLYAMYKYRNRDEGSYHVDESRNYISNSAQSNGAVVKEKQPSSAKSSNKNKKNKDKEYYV
Sequence of Neurexin-1-beta (Homo sapiens), P58400-1 S111R (P58400 other isoform, or with tags, fused parts or gaps S111R): as the sequence (P58400 other isoform, or with tags, fused parts or gaps L240R) above
Sequence of Neurexin-1-beta (Homo sapiens), P58400-1 D141S (P58400 other isoform, or with tags, fused parts or gaps D141S): as the sequence (P58400 other isoform, or with tags, fused parts or gaps L240R) above
Sequence of Neurexin-1-beta (Homo sapiens), P58400-1 L139R (P58400 other isoform, or with tags, fused parts or gaps L139R): as the sequence (P58400 other isoform, or with tags, fused parts or gaps L240R) above

Effect of a mutation on the interaction, disrupting interaction:
Neurexin-1-beta (Homo sapiens), P58400-1 D141S
Neurexin-1-beta (Homo sapiens), P58400-1 L240R
Neurexin-1-beta (Homo sapiens), P58400-1 S111R
Neurexin-1-beta (Homo sapiens), P58400-1 L139R

Reference: IntAct's records for PubMed 18084303
